Data taken from publication PMC8771563, “Mitochondrion-targeted supramolecular “nano-boat” simultaneously inhibiting dual energy metabolism for tumor selective and synergistic chemo-radiotherapy” (Theranostics, 2022).
Peptide text beside a SMILES is read from it. * marks the point of attachment. X1 = O=C(c1nn(Cc2ccc(Cl)cc2Cl)c2ccccc12)*; Cyclenylacetyl = O=C(CN1CCNCCNCCNCC1)*; NBD = O=[N+]([O-])c1ccc(*)c2nonc12; βAla = NCCC(=O)O

How the values were obtained:
[1] = system: MCF-7 cells; experiment: CCK-8 cytotoxicity assay; type: cell-based; details: 200 μM, 48 h
Method: Circular dichroism (CD) spectra
The secondary structure of LND- Pep-cyclen hydrogel and NBD- Pep-cyclen hydrogel were monitored by a circular dichroism (CD) spectrophotometer (BioLogic, MOS-450, France) system. The self-assembled hydrogel was added into a 0.1 cm quartz spectrophotometer cell (20- C/Q/0.1), then the CD signals were recorded in the 180- 280 nm scanning wavelength range. The final spectrogram was obtained after subtracting the PBS solvent background.
Mammary carcinoma cancer cells (MCF-7 and 4T1), and mouse fibroblast cells normal cells (L929) were all maintained in our lab. These cells were cultured in DMEM (MCF-7) and RPMI 1640 medium (4T1 and L929) supplemented with 10%
FBS and 1% penicillin-streptomycin in a humidified incubator maintained at 37 °C and 5% CO2, respectively.
Cytotoxicity and apoptosis analysis
All kinds of cells were seeded in 96-well plates at a density of 5000 cells per well. After 24 h incubation, the cells were treated with a series of pre-determined doses of LND-Pep-cyclen nanofibers, free LND, free cyclen, mixture of free LND and cyclen molecules for 48 h. After adding 10 μL CCK-8 solution to each well, the cells were incubated at 37 °C for another 4 h. OD450 was measured using a Thermo Scientific™ Varioskan™ LUX (Thermo, CA, USA), and then the cell viability values

[2] = system: MCF-7 tumors; experiment: In vivo anti-tumor evaluation; details: MCF-7 tumor bearing nude mice, single i.v. injection, 5 mg/kg LND equivalent, day 14, vs PBS control
Method: (§1) MCF-7 cells (1×10^7 cells per mouse) were subcutaneously injected into the breast regions of six-week-old nude mice to establish the tumor model. When the tumor volume grew to approximately 100 mm^3, all the mice were randomly divided into eight groups with seven mice in each group. Except for the control groups, all groups were intravenously administrated with 200 μL of LND-Pep-cyclen nanofibers, free LND, and mixture of free LND and free cyclen (5 mg/kg LND equivalent and 2 mg/kg cyclen equivalent), respectively. After 12 hours, the mice in the chemo-radiotherapy group were exposed to 6 Gy γ-rays. To evaluate the therapeutic efficacy, the tumor size and the body weight were recorded daily. The tumor volumes were measured using a vernier caliper and then calculated using the formula: (width^2×length)/2. On the 14th day, all the mice were euthanized when the tumor volume in the PBS control group reached approximately 1500 mm^3. The tumors and normal tissues including heart, liver, spleen, lung and kidney in each group were carefully collected, photographed, and then fixed in 4% form aldehyde for histological analysis.

[3] = system: MCF-7 cells; experiment: MMP depolarization (JC-1 probe, CLSM); type: cell-based; details: 50 μM, 24 h, serum-free medium, JC-1 10 µg/mL 30 min
Method: MCF-7 cancer cells with a density of 2 × 10^5 cells/mL were cultured in confocal cuvettes under 5% CO2 at 37 °C. After the number of anchorage-dependent cells reached up to 70%, the cells were incubated with a replaceable serum-free medium containing different forms of the drug (50 μM) for 24 h. This was followed by washing away the drug that was not absorbed and staining with 1 mL JC-1 probe (10 µg/mL) for 30 min in dark. After washing with PBS for three times, the cells were imaged by CLSM to examine the fluorescence intensity of the J-monomers and the J-aggregates.

[4] = system: MCF-7 cells; experiment: Annexin V-FITC/PI apoptosis flow cytometry; type: cell-based; details: 50 μM, 48 h, Figure 2D
Method: of different groups at different doses were calculated. For apoptosis assay, MCF -7 and L929 cells were cultured in 6-well plates at a density of 2 × 10^5 cells per well, then were treated with different forms of drug for 48 h. Afterwards, cells were harvested at 1000 rpm for 5 min and then washed with ice-cold PBS twice. Upon being suspended in 100 μL 1× binding buffer, the samples were incubated with 5 μL of FITC-Annexin- V and 5 μL of PI for 15 min at room temperature in the dark. Finally, the cells were added in 100 μL 1× binding buffer blending gently and analyzed by flow cytometry (Becton Dickinson, NJ, USA) within 1 h.
MCF-7 cancer cells and L929 normal cells with a density of 1×10^5 cells/mL were cultured in confocal chambers and 6-well plates at 37 °C, respectively. After 70% confluence, the cells were treated with fresh medium which contained the same concentrations of LND-Pep-cyclen nanofibers, LND, cyclen, mixture of free LND and cyclen molecules for 12 h. Then, followed by washing twice with PBS and incubated with 1 mL DCFH-DA (10 μM) at 37 °C for 30 min in the dark. The cells in 6-well plates were harvested, washed, re- suspended and then loaded on flow cytometry for quantitate analysis. […] Excitation at 488 nm and signal collection at 525 ± 10 nm for DCFH-DA fluorescence. […]

[5] = system: MCF-7 cells; experiment: Colony formation assay / radio-sensitization; type: cell-based; details: 10 μM, 12 h, γ-rays 0-6 Gy, multi-target single-hit model, n = 3
Method: MCF-7 cells (1,000/well) were seeded in six-well plates and incubated with different forms of drugs at a concentration of 10 μM after 12 h. Subsequently, they were irradiated with γ-rays at doses of 0, 2, 4, and 6 Gy at 36 h. Following this, the cells were continuously cultured with a fresh drug-free medium in an incubator for another 5-8 days. The fixed colonies were then stained using crystal violet (0.25%, ethanol) for subsequently counting the number of colonies, and evaluating the colony inhibition ability of each treatment. Only colonies containing >50 cells were counted and survival curves were plotted with Origin. Furthermore, the SER value was used to compare the efficiencies of the different drugs in improving the sensitivity of the MCF-7 cells to radiotherapy. The SER was determined by a classical multi-target single-hit model using the following equation:
S = 1 - (1 - e ^-D/D0)^n (1)
where S is the survival fraction, D is the radiation dose, D0 is the mean lethal dose, and n is the extrapolation number. D0 and n were calculated using the“GraphPad Prism” software (version 8.0). The final survival fraction curve of each group was obtained by a nonlinear fitting using Origin 2018, and the SER was expressed using the following formulae:
SER = Dq (control group)/Dq (treated group (2)

[6] = system: MCF-7 cells; experiment: ATP content (luminescent assay); type: cell-based; details: 50 μM, 24 h, per cell, control = 100%, mean n = 5
Method: MCF-7 cells with a density of 5000 cells/well were seeded in 96-well plates, and then were cultured at the incubators for 24 h at 37 °C under 5% CO2. After co-incubation with different forms of drugs for another 24 h, the growth medium was removed, and the wells were washed twice with PBS. The cell number of each group was counted before all the measurements. After dissociation and centrifugation, the liquid supernatant was collected for the following analysis of the HK activity and the lactate content. The hexokinase (HK) activity of the cells in each group was determined by the OD340 absorbance according to the specification of the HK activity assay kit (Solarbio, BC0745). The intracellular lactate content was detected using an L-lactate assay kit (Promega, J5021) and depended on the OD565 absorbance. A luminescent ATP detection assay kit (Abcam, ab113849) was used to analyze the quantity of ATP. All the data were shown as the mean value in per cell of each group.

[7] = Bio-compatibility evaluation (hematology, blood biochemistry); type: in vivo; details: BALB/c mice, 20 mg/kg i.v. at day 0, 7, 14, 21 (four injections), n = 5
Method: Cambridge, UK), anti-Bcl-2 (1:1000, Abcam, Cambridge, UK), anti-smac and anti-GAPDH antibody. After washing with 1 ×TBST, membranes were incubated with corresponding secondary antibody for 1 h at room temperature. The membranes were washed 3 times by 1 ×TBST and illuminated by an enhanced chemiluminescent (ECL) kit (Pierce™ ECL Western Blotting Substrate, Thermo Scientific, Rockford, IL, USA) on a Bio- Rad film (Sigma-Aldrich, St. Louis, MO, USA).
Bio-compatibility evaluation
Six-week-old BALB/c mice were randomly assigned to two groups and intravenously administrated with 200 μL of LND-Pep-cyclen nanofibers (20 mg/kg) and PBS at 0 day, 7 day, 14 day, 21 day. All the mice were sacrificed at the last time point, followed by collecting the whole body blood for the hematology and blood

[8] = H&E histology of major organs after treatment; type: in vivo, nude mice; details: single administration, compared with control group (Figure S22)
Method: as §1

[9] = system: MCF-7 cells; type: cell-based
Method: To confirm our hypothesis, we subsequently used a fluorescent molecule of 7-nitrobenzo-2-oxa-1,3-diazole (NBD), to replace LND, resulting in another peptide conjugate of NBD-GFFYK-cyclen (NBD-Pep-cyclen). […] Therefore, the NBD-Pep-cyclen conjugate could be very qualified as a substitute for LND-Pep-cyclen to verify its mitochondrial targeting performance. After incubation with MCF-7 cells for 4 hours, the cellular distribution of the NBD-Pep-cyclen nanofibers was investigated. […] The endocytosis mechanism for the cellular uptake was investigated using several well-established endocytotic inhibitors. […] In contrast, the addition of NaN3 (an inhibitor of energy-dependent endocytosis) and chlorpromazine (an inhibitor of clathrin-mediated endocytosis) reduced the uptake to less than 50%. […]
Figure S9 (A) CLSM images of MCF-7 cells treated with NBD-Pep-cyclen
nanofibers in the absence and presence of endocytotic inhibitors. […]

[10] = system: MCF-7 and L929 cells; experiment: Flow cytometry of NBD accumulation in cancer versus normal cells; type: cell-based; details: 50 μM, 4 h, flow cytometry MFI, n = 3

O=C(O)c1nn(Cc2ccc(Cl)cc2Cl)c2ccccc12 [LND, Lonidamine]
Cell survival rate [1]: 50% | Tumor growth / final tumor volume, chemotherapy only [2]: barely inhibit the tumor growth | MMP depolarization [3]: very limited effect | Cells in lower right quadrant (PI / Annexin V-FITC plot); early apoptosis rate [4]: 1.45% | SER (sensitization enhancement ratio) [5]: 1.78 | ATP content, of control [6]: 60%

O=C(CN1CCNCCNCCNCC1)NCCCC[C@H](NC(=O)[C@H](Cc1ccc(O)cc1)NC(=O)[C@H](Cc1ccccc1)NC(=O)[C@H](Cc1ccccc1)NC(=O)CNC(=O)c1nn(Cc2ccc(Cl)cc2Cl)c2ccccc12)C(=O)O [LND-Pep-cyclen] (X1-GFFYK(Cyclenylacetyl)-OH)
Liver and kidney indices (ALT, AST, TBIL, BUN) ([7]; vs control): normal with no relevant difference | Blood routine values ([7]; vs untreated control): no apparent variations | Histological changes in liver, spleen, kidney, heart, lung (H&E) [8]: no appreciable inflammatory damage and tissue damage

O=C(CCNc1ccc([N+](=O)[O-])c2nonc12)NCC(=O)N[C@@H](Cc1ccccc1)C(=O)N[C@@H](Cc1ccccc1)C(=O)N[C@@H](Cc1ccc(O)cc1)C(=O)N[C@@H](CCCCNC(=O)CN1CCNCCNCCNCC1)C(=O)O [NBD-Pep-cyclen] ({NBD-βAla}-GFFYK(Cyclenylacetyl)-OH)
Cellular uptake in presence of NaN3 [9]: less than 50% | Cellular uptake in presence of chlorpromazine [9]: less than 50% | Cellular uptake in presence of nystatin [9]: barely affected | Cellular uptake in presence of wortmannin [9]: barely affected | NBD fluorescence intensity in MCF-7 cells relative to L929 cells [10]: more than two-folds
